Test results as given in the supplement of paper PMC11246515.
± gives the standard deviation of the averaged measurements.

Assay: total protein half-life in vivo (active degradation + dilution); higher = more stable protein
[1] = E. coli NCM3722 delta-smpB, growth: N-lim chemostat, doubling time 6 h
[2] = wild type E. coli NCM3722, growth: C-lim chemostat, doubling time 3 h
[3] = wild type E. coli NCM3722, growth: P-lim chemostat, doubling time 6 h
[4] = wild type E. coli NCM3722, growth: P-lim chemostat, doubling time 12 h
[5] = wild type E. coli NCM3722, growth: C-lim chemostat, doubling time 6 h
[6] = E. coli NCM3722 delta-clpP, growth: N-lim chemostat, doubling time 6 h
[7] = E. coli NCM3722 delta-hslV, growth: N-lim chemostat, doubling time 6 h
[8] = E. coli NCM3722 delta-lon, growth: N-lim chemostat, doubling time 6 h
[9] = wild type E. coli NCM3722, growth: C-lim chemostat, doubling time 12 h
[10] = wild type E. coli NCM3722, growth: N-lim chemostat, doubling time 6 h
[11] = wild type E. coli NCM3722, growth: N-lim chemostat, doubling time 12 h
[12] = E. coli NCM3722 delta-clpP delta-lon delta-hslV, growth: N-lim chemostat, doubling time 6 h

| Sequence | total protein half-life in vivo [1] [h] | total protein half-life in vivo [2] [h] | total protein half-life in vivo [3] [h] | total protein half-life in vivo [4] [h] | total protein half-life in vivo [5] [h] | total protein half-life in vivo [6] [h] | total protein half-life in vivo [7] [h] | total protein half-life in vivo [8] [h] | total protein half-life in vivo [9] [h] | total protein half-life in vivo [10] [h] | total protein half-life in vivo [11] [h] | total protein half-life in vivo [12] [h] |
| --- | --- | --- | --- | --- | --- | --- | --- | --- | --- | --- | --- | --- |
| MRMNVFEMEGFLRGKCVPRDLKVNETNAEYLVRKFDALEAKCAALENKIIPVSAELPPANESVLLFDANGEGWLIGWRSLWYTWGQKETGEWQWTFQVGDLENVNITHWAVMPKAPEAGA | 2.28 | 2.52 | 3.02 ± 0.68 | 5.84 |  |  |  |  |  |  |  |  |
| MSVFSLKIDIADNKFFNGETSPLFSQSQAKLARQFHQKIAGYRPTPLCALDDLANLFGVKKILVKDESKRFGLNAFKMLGGAYAIAQLLCEKYHLDIETLSFEHLKNAIGEKMTFATTTDGNHGRGVAWAAQQLGQNAVIYMPKGSAQERVDAILNLGAECIVTDMNYDDTVRLTMQHAQQHGWEVVQDTAWEGYTKIPTWIMQGYATLADEAVEQMREMGVTPTHVLLQAGVGAMAGGVLGYLVDVYSPQNLHSIIVEPDKADCIYRSGVKGDIVNVGGDMATIMAGLACGEPNPLGWEILRNCATQFISCQDSVAALGMRVLGNPYGNDPRIISGESGAVGLGVLAAVHYHPQRQSLMEKLALNKDAVVLVISTEGDTDVKHYREVVWEGKHAVAP |  |  |  |  | 4.2 |  |  |  |  |  |  |  |
| MLPKAARIPHAMTLHGDTRIDNYYWLRDDTRSQPEVLDYLQQENSYGHRVMASQQALQDRILKEIIDRIPQREVSAPYIKNGYRYRHIYEPGCEYAIYQRQSAFSEEWDEWETLLDANKRAAHSEFYSMGGMAITPDNTIMALAEDFLSRRQYGIRFRNLETGNWYPELLDNVEPSFVWANDSWIFYYVRKHPVTLLPYQVWRHAIGTPASQDKLIYEEKDDTYYVSLHKTTSKHYVVIHLASATTSEVRLLDAEMADAEPFVFLPRRKDHEYSLDHYQHRFYLRSNRHGKNFGLYRTRMRDEQQWEELIPPRENIMLEGFTLFTDWLVVEERQRGLTSLRQINRKTREVIGIAFDDPAYVTWIAYNPEPETARLRYGYSSMTTPDTLFELDMDTGERRVLKQTEVPGFYAANYRSEHLWIVARDGVEVPVSLVYHRKHFRKGHNPLLVYGYGSYGASIDADFSFSRLSLLDRGFVYAIVHVRGGGELGQQWYEDGKFLKKKNTFNDYLDACDALLKLGYGSPSLCYAMGGSAGGMLMGVAINQRPELFHGVIAQVPFVDVVTTMLDESIPLTTGEFEEWGNPQDPQYYEYMKSYSPYDNVTAQAYPHLLVTTGLHDSQVQYWEPAKWVAKLRELKTDDHLLLLCTDMDSGHGGKSGRFKSYEGVAMEYAFLVALAQGTLPATPAD | 3.5 ± 0.68 | 3.24 ± 0.09 | 5.9 ± 1.3 | 10.3 ± 0.86 | 5.11 ± 0.12 | 3.82 ± 0.14 | 4.03 ± 0.38 | 4.8 ± 0.56 | 10.8 ± 3.6 | 4.31 ± 0.24 | 8.85 |  |
| MQWQTKLPLIAILRGITPDEALAHVGAVIDAGFDAVEIPLNSPQWEQSIPAIVDAYGDKALIGAGTVLKPEQVDALARMGCQLIVTPNIHSEVIRRAVGYGMTVCPGCATATEAFTALEAGAQALKIFPSSAFGPQYIKALKAVLPSDIAVFAVGGVTPENLAQWIDAGCAGAGLGSDLYRAGQSVERTAQQAAAFVKAYREAVQ [Q6BF16] |  | 2.04 |  |  | 3.84 |  |  |  | 8.18 |  |  | 4.76 |
| MPKIVILPHQDLCPDGAVLEANSGETILDAALRNGIEIEHACEKSCACTTCHCIVREGFDSLPESSEQEDDMLDKAWGLEPESRLSCQARVTDEDLVVEIPRYTINHAREH [P0A9R4] | 3.67 ± 0.56 | 3.16 ± 0.84 | 5.22 ± 0.39 | 10.8 ± 0.6 |  | 5.96 ± 1.3 | 4.83 ± 0.91 | 6.22 ± 1.6 | 6.59 ± 0.084 | 4.05 ± 0.7 | 8.81 ± 2.2 | 4.926 ± 0.026 |
| MTQPMPGKPAEDAENELDIRGLFRTLWAGKLWIIGMGLAFALIALAYTFFARQEWSSTAITDRPTVNMLGGYYSQQQFLRNLDVRSNMASADQPSVMDEAYKEFVMQLASWDTRREFWLQTDYYKQRMVGNSKADAALLDEMINNIQFIPGDFTRAVNDSVKLIAETAPDANNLLRQYVAFASQRAASHLNDELKGAWAARTIQMKAQVKRQEEVAKAIYDRRMNSIEQALKIAEQHNISRSATDVPAEELPDSEMFLLGRPMLQARLENLQAVGPAFDLDYDQNRAMLNTLNVGPTLDPRFQTYRYLRTPEEPVKRDSPRRAFLMIMWGIVGGLIGAGVALTRRCSK [P0AG00] | 6.22 ± 0.16 | 3.48 ± 0.46 | 6.31 ± 0.24 | 13.3 ± 0.56 | 6.38 ± 0.37 | 6.17 ± 0.56 | 6.71 ± 1.2 | 6.55 ± 0.092 |  | 6.6 ± 1.2 | 12.9 ± 1.9 | 6.85 ± 0.38 |
| MTEHTSSYYAASANKYAPFDTLNESITCDVCVVGGGYTGLSSALHLAEAGFDVVVLEASRIGFGASGRNGGQLVNSYSRDIDVIEKSYGMDTARMLGSMMFEGGEIIRERIKRYQIDCDYRPGGLFVAMNDKQLATLEEQKENWERYGNKQLELLDANAIRREVASDRYTGALLDHSGGHIHPLNLAIGEADAIRLNGGRVYELSAVTQIQHTTPAVVRTAKGQVTAKYVIVAGNAYLGDKVEPELAKRSMPCGTQVITTERLSEDLARSLIPKNYCVEDCNYLLDYYRLTADNRLLYGGGVVYGARDPDDVERLVVPKLLKTFPQLKGVKIDYRWTGNFLLTLSRMPQFGRLDTNIYYMQGYSGHGVTCTHLAGRLIAELLRGDAERFDAFANLPHYPFPGGRTLRVPFTAMGAAYYSLRDRLGV |  | 0.265 |  |  | 6.7 | 6.23 | 5.96 ± 0.34 | 3.84 ± 1.7 | 4.55 | 1.81 | 6.25 ± 7.7 |  |
| MKAFDLHRMAFDKVPFDFLGEVALRSLYTFVLVFLFLKMTGRRGVRQMSLFEVLIILTLGSAAGDVAFYDDVPMVPVLIVFITLALLYRLVMWLMAHSEKLEDLLEGKPVVIIEDGELAWSKLNNSNMTEFEFFMELRLRGVEQLGQVRLAILETNGQISVYFFEDDKVKPGLLILPSDCTQRYKVVPESADYACIRCSEIIHMKAGEKQLCPRCANPEWTKASRAKRVT | 5.8 ± 0.11 |  |  | 12.1 ± 0.66 | > 8 | 6.17 | 5.53 | 5.11 ± 0.43 | 11.8 |  | > 16 | 6.22 ± 1.1 |
